Bridge positions count the residues as written; N and C are the ends. Square brackets hold non-standard residues; d marks the D form. Ends that are not written are not given here. Oic = O=C(O)[C@@H]1C[C@@H]2CCCC[C@@H]2N1; NMeI = CC[C@H](C)[C@H](NC)C(=O)O; tBuAla = CC(C)(C)C[C@H](N)C(=O)O; 3Pal = N[C@@H](Cc1cccnc1)C(=O)O; PEG5 = NCCOCCOCCOCCOCCOCCC(=O)O; 2Thi = N[C@@H](Cc1cccs1)C(=O)O; Pen = CC(C)(S)[C@H](N)C(=O)O; Sar = CNCC(=O)O

To fix the notation:
T1: recombinant human MASP1 active protease (amino acids 297-699, C-terminal His Tag) (human, UniProt P48740 297-699)
T1 sequence: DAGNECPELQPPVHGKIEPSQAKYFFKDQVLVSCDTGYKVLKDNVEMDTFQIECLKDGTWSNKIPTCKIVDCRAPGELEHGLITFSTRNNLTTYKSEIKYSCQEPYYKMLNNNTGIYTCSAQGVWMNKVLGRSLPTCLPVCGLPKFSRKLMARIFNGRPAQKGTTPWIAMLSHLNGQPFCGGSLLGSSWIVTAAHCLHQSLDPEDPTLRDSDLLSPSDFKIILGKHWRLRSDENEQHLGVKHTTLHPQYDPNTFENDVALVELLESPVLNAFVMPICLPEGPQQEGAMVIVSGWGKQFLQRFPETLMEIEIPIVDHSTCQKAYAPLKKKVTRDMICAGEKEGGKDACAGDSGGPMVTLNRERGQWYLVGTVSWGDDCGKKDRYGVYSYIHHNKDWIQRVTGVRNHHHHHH

B1: (3-Pal)-IC+SRS-((tBu)A)-PPI-(Pen)+IPD-NH2 (peptide)
peptide: [3Pal]ICSRS[tBuAla]PPI[Pen]IPD-NH2
modifications: disulfide 3-11; N-terminus assumed
SMILES: CC[C@H](C)[C@H](NC(=O)[C@@H](N)Cc1cccnc1)C(=O)N[C@H]1CSSC(C)(C)[C@@H](C(=O)N[C@H](C(=O)N2CCC[C@H]2C(=O)N[C@@H](CC(=O)O)C(N)=O)[C@@H](C)CC)NC(=O)[C@H]([C@@H](C)CC)NC(=O)[C@@H]2CCCN2C(=O)[C@@H]2CCCN2C(=O)[C@H](CC(C)(C)C)NC(=O)[C@H](CO)NC(=O)[C@H](CCCNC(=N)N)NC(=O)[C@H](CO)NC1=O
B2: ((N-Me)G)-IC+SRSLP-(Oic)-I-(Pen)+IP-(PEG4(19 atoms))-NH2 (peptide)
peptide: [Sar]ICSRSLP[Oic]I[Pen]IP[PEG5]-NH2
modifications: disulfide 3-11; N-terminus assumed
SMILES: CC[C@H](C)[C@H](NC(=O)CNC)C(=O)N[C@H]1CSSC(C)(C)[C@@H](C(=O)N[C@H](C(=O)N2CCC[C@H]2C(=O)NCCOCCOCCOCCOCCOCCC(N)=O)[C@@H](C)CC)NC(=O)[C@H]([C@@H](C)CC)NC(=O)[C@@H]2C[C@@H]3CCCC[C@@H]3N2C(=O)[C@@H]2CCCN2C(=O)[C@H](CC(C)C)NC(=O)[C@H](CO)NC(=O)[C@H](CCCNC(=N)N)NC(=O)[C@H](CO)NC1=O
B3: ((N-Me)G)-IC+SRSLP-(Oic)-I-(Pen)+IPD-OH (peptide)
peptide: [Sar]ICSRSLP[Oic]I[Pen]IPD-OH
modifications: disulfide 3-11; N-terminus assumed
SMILES: CC[C@H](C)[C@H](NC(=O)CNC)C(=O)N[C@H]1CSSC(C)(C)[C@@H](C(=O)N[C@H](C(=O)N2CCC[C@H]2C(=O)N[C@@H](CC(=O)O)C(=O)O)[C@@H](C)CC)NC(=O)[C@H]([C@@H](C)CC)NC(=O)[C@@H]2C[C@@H]3CCCC[C@@H]3N2C(=O)[C@@H]2CCCN2C(=O)[C@H](CC(C)C)NC(=O)[C@H](CO)NC(=O)[C@H](CCCNC(=N)N)NC(=O)[C@H](CO)NC1=O
B4: Ac-G-((N-Me)I)-C+SRSLPPIC+IPD-OH (peptide)
peptide: Ac-G[NMeI]CSRSLPPICIPD-OH
modifications: disulfide 3-11
SMILES: CC[C@H](C)[C@@H]1NC(=O)[C@@H]2CCCN2C(=O)[C@@H]2CCCN2C(=O)[C@H](CC(C)C)NC(=O)[C@H](CO)NC(=O)[C@H](CCCNC(=N)N)NC(=O)[C@H](CO)NC(=O)[C@@H](NC(=O)[C@H]([C@@H](C)CC)N(C)C(=O)CNC(C)=O)CSSC[C@@H](C(=O)N[C@H](C(=O)N2CCC[C@H]2C(=O)N[C@@H](CC(=O)O)C(=O)O)[C@@H](C)CC)NC1=O
B5: (beta-2-thienylalanine)-IC+SRS-((tBu)A)-PPI-(Pen)+IPD-NH2 (peptide)
peptide: [2Thi]ICSRS[tBuAla]PPI[Pen]IPD-NH2
modifications: disulfide 3-11; N-terminus assumed
SMILES: CC[C@H](C)[C@H](NC(=O)[C@@H](N)Cc1cccs1)C(=O)N[C@H]1CSSC(C)(C)[C@@H](C(=O)N[C@H](C(=O)N2CCC[C@H]2C(=O)N[C@@H](CC(=O)O)C(N)=O)[C@@H](C)CC)NC(=O)[C@H]([C@@H](C)CC)NC(=O)[C@@H]2CCCN2C(=O)[C@@H]2CCCN2C(=O)[C@H](CC(C)(C)C)NC(=O)[C@H](CO)NC(=O)[C@H](CCCNC(=N)N)NC(=O)[C@H](CO)NC1=O

The assay addresses T1, recombinant human MASP1 active protease …. Kind of assay: cell-based or functional assay.
On to B1, for which the “human MASP1 IC50” value was 2.6 nM.
Regarding AICSRSLP[Oic]I[Pen]IPD-OH (disulfide 3-11) [AIC+SRSLP-(Oic)-I-(Pen)+IPD-OH (salt free form)], the “human MASP1 IC50” value was found to be 0.96 nM.
The value for B2 was 2.6 nM; that for B3 was 2.5 nM; that for B4 was 2.09 nM.
B5: the “human MASP1 IC50” value worked out at 2.6 nM.
For AICSRSLP[Oic]I[Pen]IPD-NH2 (disulfide 3-11; also: TFA salt) [AIC+SRSLP-(Oic)-I-(Pen)+IPD-NH2], the “human MASP1 IC50” value came out at 2.23 nM.
